This is an account of results in patent US20240026407A1, “MODIFICATION OF SAPONINS” (GLAXOSMITHKLINE BIOLOGICALS SA, priority 2020, published 2024).

To fix the notation:
B1: 32 (protein)
chain: MSIRLTDKASVPAVVAEMTLEEKARLVTGEFPFTTAGIKRLGIPPMRPLDGHTGINMGQLRSDMASKTLANKSVDELGEMSGPAISGFGTVITNAKDPAKRAKMAPSIQKLVQEVLDKVDELMPDGMYPGCFPPGIMQGSTWNPEVIEKEGSAVGKEMDAYKVDVCLGPNVNIHRDPLNGRLFEGYSEDPYVTATLAPYYIRGMQAEGVAADAKHFAANNQETHRQEIDERIPLRALYEIYLPGFKAAVQQGKVKTLMSAYNKINGTACALNHWLLTDVLRGEWGFEGFVVSDWGAVYDQVDAINAGNDLEMPGPLTFDKIVAAVKDGRIDEKTLDQRVANYLNVLVELPVMKGRKNAHIDREYSRKAAYDVAAEGSILLKNEGALPLNEGAKISLIGEHAKDYIICGKGSAFIDTDQATNLYDCAVETLGADKVEYGDVSADSDAAIIVVSVDGQEGSDRADLLLAPGDDQMILDAAKKAHANGKKAIVILNVTGPVEMEGWLDQVDAVLCVWLPGMEGGRATLDILTGKVNPSGKLTLTFPKHYYDCPTYGNFPGDGDEVWYGEGIYVGYRYYDKKHVEPLYPFGYGLSYTTFELSDIAIDRDVMDMDKGETVNVSVKVTNTGKVAGKEVVQVYISDEVSTLSKPLKELKGFQKVALQPGESKVVTIAIGKDQLASYDPAAKAWGSEPGYYQALVGTSSRDIAGAVRFKAVGYNPFGYGVNCSIGKIMANPAVVEAMKKYIPAHLLSDESMSSELTYFPEAKLQKIWNEKFSLAFKDKSETEKQAILDAMCAEIAKIEVI
modifications: uncultured Clostridium sp.
B2: 312 (protein, listed as Thermotoga neapolitana)
chain: MEKVNEILSQLTLEEKVKLVVGVGLPGLFGNPHSRVAGAAGETHPVPRVGLPAFVLADGPAGLRINPTRENDENTYYTTAFPVEIMLASTWNRELLEEVGKAMGEEVREYGVDVLLAPAMNIHRNPLCGRNFEYYSEDPVLSGEMASSFVKGVQSQGVGACIKHFVANNQETNRMVVDTIVSERALREIYLRGFEIAVKKSKPWSVMSAYNKLNGKYCSQNEWLLKKVLREEWGFEGFVMSDWYAGDNPVEQLKAGNDLIMPGKAYQVNTERRDEIEEIMEALKEGKLSEEVLDECVRNILKVLVNAPSFKNYRYSNKPDLEKHAKVAYEAGAEGVVLLRNEEALPLSENSKIALFGTGQIETIKGGTGSGDTHPRYAISILEGIKERGLNFDEELAKTYEDYIKKMRETEEYKPRRDSWGTIIKPKLPENFLSEKEIHKLAKKNDVAVIVISRISGEGYDRKPVKGDFYLSDDETDLIKTVSREFHEQGKKVIVLLNIGSPVEVVSWRDLVDGILLVWQAGQETGRIVADVLTGRINPSGKLPTTFPRDYSDVPSWTFPGEPKDNPQKVVYEEDIYVGYRYYDTFGVEPAYEFGYGLSYTTFEYSDLNVSFDGETLRVQYRIENTGGRAGKEVSQVYIKAPKGKIDKPFQELKAFHKTRLLNPGESEEVVLEIPVRDLASFNGEEWVVEAGEYEVRVGASSRNIKLKGTFSVGEERRFKP
B3: 41 (protein, listed as Ardenticatena maritima)
chain: MKGARMQDRVETLLQSLTLDEKIKLLAGADTWHTHAIPRLGIPALKVTDGPNGVRGTQKDTRSQTSASFPVGTAMGATWNPDLVREIGEALAEEVKTKGAHVLLGPTVNMHRHPLAGRNFECFAEDPYLMARMAVAYIQGVQSQGVGACIKHYVCNDQEFERFSISAEVDERTLREIYLPPFKAAVQEAGVWTLMTAYNRVNGVYASENSHLFDILKDEWGFDGLALSDWYGTYSDRVPLERLDLEMPGPGRWMAPEKVRAALERGEITEADIDDKVRRLLRTLERVGAFEDSAPKEERSVDNPRHHEIIRRAGREAIVLLKNEDNVLPLDASRFPRLAVIGRPATEVSFQGGGSSEVNPHYVVQPLDAMRERYGEAFQMTYALGPAFYRNFPLLDTRGLRAEDGTPGKVTVRQYDNTELEGEPSKVFLAEGTQLAWFGEQISEFDLRSFSLTMSGTWTPPVSGTYTFSMATVGRGRFEFDGKTLLDWWEYIPEEQPQNFDGMVSVPWRQEEVTLELEAGREYPFRVDFAVVPGGRWRTIRLGVLPPQPADPIGEAVALAREADAAVVFVGLTPEWESEGSDRESMDLPGEQNELVARVAEANPNTIVIVNAGSPVHMPWLDKVKAVLQVWYLGQEMGNAITDVLFGEADPGGRLPTTFPKRLQDSPAYINYPGENGRVYYGERLYVGYRYYDKKEIEPLFPFGHGLSYTTFSYDALELAADQVRVGEGVDVHVTITNQGARRGQEVVQVYLHDVESSLPRPPKELKGFAKVTLEPGETRTVTIHLRPDAFAFYDDKRGAWVVEPGAFEVLVGRSAADIRLRARLDIVDKTTEALEAGNVLAG
B4: 35 (protein, listed as Verrucomicrobia bacterium)
chain: MSEPDVENRINGLLKQMSLEEKTSLLHGNSKFNTAGIKRLGIPRLHLSDGPHGVRRETEEHSWGPVGWEDDYVTYLPTGSALASTWNPALGRLFGETLGAEARHRNKDVILGPGINIVRTPVCGRNFEYFGEDPYHVGKMAAEVVRGIQNNDVAACVKHYALNNQEWNRGWVNAIVDERTLREIYLPAFEETVRAGALTFMGAYNRFRGQWCCENKYLVNDILKGEWGFDGVYLSDWGGVHSTRDSALNGLDLEMGTSDNYDEFFFARPLREAVEGGEIPESVVDDKVRRILRVMARIGALDPATRKTGARNTAAHQKAVRAIADEAMVLLKNDGVLPLDIHKTLKLAVIGENADKKHADQGGSSAIRALYEITPLEGLKRRGGDMVKITYVQGYRDTGDAAAFEPIGEPYVQTVDPKAGVRCWKVEYFNNRDLHMPPVTVRYEKSVDFDWQERSPAPNVSEDNFSARMTAEIKPTASGTHHIGLTSDDGSRLKIDGKVVIDHWGDHGEEQKDARVELVAGQTYRFEVEYYDSGKGAMLKLGWVTPDSSAADPEVVFAAALEAAREADAVLVFAGQNHRYDTEGVDRRDIRLHGRQNDLIEAVAAANPRTAVFIISGSAVEMPWIDKVPCVVQAWYAGMEVGNAAAGIVFGDVNPSGKLPITFPKRLEDVPAHSIGQYNDQDCEYREGLLVGYRHFDTRNAEPLFPFGHGLSYTKFTYGNLKVDPATLEVRVSVKNTGARKGKEVVQLYVHDVQSRLPRPVKELKGFEKVELAPGETKEVAFRLDERALAFYDADANRWVVEPGDFDILVGSSSRDIRLKGRLAYAGRKKGPL
B5: 370 (protein, listed as Rhizoctonia solani)
chain: MAPRPFKPLDVEDVISKLSLNEKTRLLAGIDNWHTYPVPRLGVPSLRFTDGPNGARGTKFFEGVPAACFPAATGLGSSWDPEFIQKVGQAIGRDCKDKGCHVLLGPTINIQRSPLGGRGFESYSEDPLLSGTLARAFIKGVQSEGVSATIKHYVTNDSEFERMSMSSELSTRALREIYLRPFELACRDPETAPWAVMTAYNRVNGLHASENKYLLDSVLRKQWGWEGMIMSDWYGTYSADASIKAGLDLEMPGPPTWRADALQRCVVAQKIRVPEIDARVREVLKLINRVAVSGIPENADETGEPKPETIDLLRQAAAHANVLLKNSESLLPISAKDVASIAVIGPNADSPVFSGGGSANLRPYKHTTALEGIAAALQDAGNKVEVQHTIGAHAHKEAPLLGVKHLKTKAGEPGYDIEWFNEDPVQNPDAKRVHYTHGTTSFAFFNDNLPGDDVLHQECWATMTAIFTPEVTGKYEFGAAATGLVDVYVDGKKIIDNSSNPVPGHVFFMTGTVEVLNTVELTAGKPAEIKLQFASPVAARTKGFTQIGAGSLSLEGRGGCRWGGGRTFEDDQGIKEAVDLAKKVDKVVLVVGLNNDWESEGYDRDNMELPRATNRLVSAVLEVNKNTAVVIISGTPVAMPWAESASTIVQSFYSGGEAGNGLADVLFGKVNPSSRLPLTFPVRDEDTPSHLNFPGQNGKVLYAEGVFVGYRHYLTYKKKVLFPFGYGLSYTQFEHSDLKLSGEIGKDSTVKVSVTVKNTGKVAGRDVVQIYVRDLVSRLDRPVKELKGFAKSSLLEPGKSETVTITLDKYAFGYFDDWAGEGRDGEGLWVAEAGDFEIVAASTSEDVGISAGISLKQSFEWL

One assay in a line: Experiment 4-1: screening of glucosidases for deglycosylation with purified QS-18 (0.04 mg/ml) at pH 7.5 and room temperature. It is filed as biochemical, Quillaja saponaria. Conditions: pH 7.5, room temperature, 20 h, clarified E. coli lysate, QS-18 2150 to QS-21 1988 by LCMS/MS. The method, then:
Nucleotide sequences were sub-cloned into pET24b+ for expression. 10 uL of E. coli cells (One Shot® BL21(DE3) chemically competent E. coli) were transferred to each well of a 96 well PCR plate (prechilled on ice). 10 uL autoclaved water was added to the DNA, resuspended by pipetting, and 1 uL of plasmid DNA (15-30 ng) was transferred to the competent cells. Immediately after addition, the resulting mixture was mixed by pipetting. Cells were heat shocked by placing the plate in a thermal cycler at 42° C. for 30 seconds then transferred directly to an ice bath for 2 min. 100 uL sterile Lysogeny Broth (LB) medium was added to each well containing transformed cells. The content of each plate was transferred into a 96-deep well plate pre-aliquoted with 400 uL LB and the plate was incubated at 37° C. with shaking and 85% humidity for 1 hour. After outgrowth, 500 uL of sterile LB containing 100 ug/mL kanamycin was added to the plates containing cells and plates incubated at 37° C. with shaking overnight (18 hours) with humidity control (85%).
1000 mLs of Overnight Express Media was supplemented with 1 mL kanamycin 50 mg/mL and 20 mL of 50% v/v glycerol added (50 ug/mL kanamycin final and 1% glycerol). 96-Well Assay Block 2 mL plates were aliquoted with 380 uL of media per well. Pre-inoculum (20 uL) from transformation plates was added. The plates were sealed appropriately and incubated at 37° C. at 300 with shaking for 2 h. After 2 h the temperature was lowered to 20° C. and incubation continued for 20 h.
The liquid cultures were centrifuged for 10 minutes at 4° C. The supernatant was discarded, plates blotted on an absorbent material to remove residue and the plates frozen at −80° C.
Lysis buffer was prepared according to the following protocol: • 1. Polymyxin B sulphate (0.5 mg/mL) was suspended in 100 mM potassium phosphate pH 7.5 • 2. The mixture was sonicated until polymyxin B sulphate had dissolved • 3. Lysozyme (1 mg/mL) and benzonase (0.1 uL/mL lysis buffer) were added
2 copies of each cell pellet plate were removed from −80 degC freezer and allowed to thaw. 200 uL of lysis buffer was added to each well of one copy of the cell pellet plates. Plates were shaken at room temperature for 10 mins. 190 uL of cell pellet/lysis buffer was transferred to a corresponding fresh cell pellet plate. These plates were incubated at room temperature with shaking for 2 hours. Lysate was clarified by centrifugation (10 min, 4 degC).
QS-18 was obtained by analogous methods to Example 3, collecting a QS-18 containing phenyl fraction following phenyl treatment (presence of m/z corresponding to key components was confirmed by MS and the phenyl fraction then used without further treatment). QS-18 solution was prepared by diluting aqueous QS-18 (ca 1 mg/mL) with 100 mM potassium phosphate pH 7.5 to 0.2 mg/ml. 40 uL clarified lysate was transferred into fresh 96 well PCR plates. 10 uL QS-18 solution added to each well of lysate to a final concentration of 0.04 mg/ml. Incubated at room temperature with shaking for 20 h. Quenched with 50 uL MeCN and shaken at room temperature for 10 mins. Samples were analysed by LC-MS/MS using a Waters Acquity H class coupled to a Waters Xevo Tandem Quadrupole (TQD) Mass Spectrometer.
Enzyme activity was calculated as: […]
Candidate enzymes with % conversion >0.72%, i.e. >3 S.D. above negative control, were considered to be positive hits and are listed below in Table 7. Sample results are shown in FIG. 10 for a QS-21 standard, FIG. 11 for negative control and FIG. 12 for treatment with the glucosidase of SEQ ID No. 262.
For B1, the “Expt 4-1 % conv” value came to 2.2%.

For B2, the “Expt 4-1 % conv” value came out at 1.6%.

For B3, the “Expt 4-1 % conv” value is reported as 4.0%.

B4: the “Expt 4-1 % conv” value is recorded as 1.2%.

As for B5, the “Expt 4-1 % conv” value was found to be 1.1%.

A further assay is described as follows: Experiment 4-2: screening of glucosidases for deglycosylation with purified QS-18 (1 mg/ml) at pH 6 and 30 deg C. It is filed as biochemical, Quillaja saponaria. To be noted: pH 6, 30 degC, 18 hrs, clarified lysate, LCMS/MS. On the procedure: Lysates were prepared in an identical manner to Experiment 4-1 above, except the lysis buffer was prepared in 100 mM potassium phosphate buffer pH 6. QS-18 solution was prepared by dissolving QS-18 in 100 mM potassium phosphate buffer pH 6 (2 mg/mL).
12 uL clarified lysate was transferred into fresh 96 well PCR plates. 12 uL QS-18 solution was added (1 mg/ml final concentration), plates sealed and incubated overnight (30° C.) for 18 hrs. After quenching with 25 uL MeCN and shaking for 10 mins (RT), samples were analysed using the LC-MS/MS protocol described in Experiment 4-1 and enzyme activity determined in an analogous manner.
Consider B1, for which the “Expt 4-2 % conv” value is recorded as 0.6%.

For the molecule B2, the “Expt 4-2 % conv” value was determined as 0.4%.

As for B3, the “Expt 4-2 % conv” value was found to be 0.7%.

For the molecule B4, the “Expt 4-2 % conv” value was 0.4%.

Consider B5, for which the “Expt 4-2 % conv” value is 0.5%.
